Laboratory results taken from patent US6406896.

Experiments:
[1] = biological target: Tn5 transposase wild-type (Tnp WT) (UniProt Q46731); test: cell_activity; conditions: mating out
Tnp E344K plus one E344K = test: cell_activity; conditions: mating out, dam+ strain
Tnp E58V plus one E58V = test: cell_activity; conditions: mating out, dam+ strain
Tnp L372Q plus one L372Q = test: cell_activity; conditions: mating out, dam+ strain
Tnp T171S plus one T171S = test: cell_activity; conditions: mating out, dam+ strain
[2] = biological target: Tnp sC7 R8C,E58V,A157T,T171S,D217A,E344K,L372Q (UniProt Q46731); test: cell_activity; conditions: mating out
[3] = test system: Tnp sC7(157,171) R8C,E58V,D217A,E344K,L372Q; test: cell_activity; conditions: mating out, dam+ strain
[4] = test system: Tnp sC7(157,217) R8C,E58V,T171S,E344K,L372Q; test: cell_activity; conditions: mating out, dam+ strain
[5] = test system: Tnp sC7(171,217) R8C,E58V,A157T,E344K,L372Q; test: cell_activity; conditions: mating out, dam+ strain
[6] = test system: Tnp sC7v2.0 (sC7(157,171,217)) R8C,E58V,E344K,L372Q; test: cell_activity; conditions: mating out, dam+ strain
[7] = test system: sC7 A157T minus one R8C,E58V,T171S,D217A,E344K,L372Q; test: cell_activity; conditions: mating out, dam+ strain
[8] = test system: sC7 D217A minus one R8C,E58V,A157T,T171S,E344K,L372Q; test: cell_activity; conditions: mating out, dam+ strain
[9] = test system: sC7 E344K minus one R8C,E58V,A157T,T171S,D217A,L372Q; test: cell_activity; conditions: mating out, dam+ strain
[10] = test system: sC7 E58V minus one R8C,A157T,T171S,D217A,E344K,L372Q; test: cell_activity; conditions: mating out, dam+ strain
[11] = test system: sC7 L372Q minus one R8C,E58V,A157T,T171S,D217A,E344K; test: cell_activity; conditions: mating out, dam+ strain
[12] = test system: sC7 R8C minus one E58V,A157T,T171S,D217A,E344K,L372Q; test: cell_activity; conditions: mating out, dam+ strain
[13] = test system: sC7 T171S minus one R8C,E58V,A157T,D217A,E344K,L372Q; test: cell_activity; conditions: mating out, dam+ strain
[14] = test system: Tnp sC7v2.0 purified R8C,E58V,E344K,L372Q; test: cleavage_in_vitro; conditions: dam methylation of adenines in the two GATC sites (four methyl groups per end); in vitro transposition, 3 h, 37C, 280 nM Tnp, 35.5 nM pGT4
Tnp A157T plus one A157T = test: cell_activity; conditions: mating out, dam+ strain
Tnp D217A plus one D217A = test: cell_activity; conditions: mating out, dam+ strain
Tnp R8C plus one R8C = test: cell_activity; conditions: mating out, dam+ strain
[15] = dam methylation of adenines in the two GATC sites (four methyl groups per end), dam+ strain
[16] = dam methylation of adenines in the two GATC sites (four methyl groups per end)

Substance: Dam-methylated Tn5 inside end (IEME)
- activity (transposition frequency) [1, 15]: 1e-08
- activity (transposition frequency) (Tnp E344K plus one E344K; dam methylation of adenines in the two GATC sites (four methyl groups per end), 4.3-fold over WT): 4.3e-08
- activity (transposition frequency) (Tnp E58V plus one E58V; dam methylation of adenines in the two GATC sites (four methyl groups per end), 40000-fold over WT): 0.0004
- activity (transposition frequency) (Tnp L372Q plus one L372Q; dam methylation of adenines in the two GATC sites (four methyl groups per end), 8.9-fold over WT): 8.9e-08
- activity (transposition frequency) (Tnp T171S plus one T171S; [16]): 5.6e-09
- activity (transposition frequency) [2, 15]: 0.0026
- activity (transposition frequency) [3, 16]: 0.0065
- activity (transposition frequency) [4, 16]: 0.0084
- activity (transposition frequency) [5, 16]: 0.0058
- activity (transposition frequency) [6, 16]: 0.0074
- activity (transposition frequency) [7, 16]: 0.0031
- activity (transposition frequency) [8, 16]: 0.0037
- activity (transposition frequency) [9, 16]: 0.00055
- activity (transposition frequency) [10, 16]: 1.8e-06
- activity (transposition frequency) [11, 16]: 0.00026
- activity (transposition frequency) [12, 16]: 0.0031
- activity (transposition frequency) [13, 16]: 0.0028
- activity (% supercoiled plasmid converted) [14]: 66

Substance: Tn5 inside end (IE), unmethylated
- activity (transposition frequency) ([1]; dam- strain): 6.5e-05
- activity (transposition frequency) ([2]; dam- strain): 0.0018

Substance: Tn5 outside end (OE)
- activity (transposition frequency) ([1]; dam- strain, 3.1e-6 in dam+ strain): 6.5e-05
- activity (transposition frequency) (Tnp A157T plus one A157T): 6.6e-07
- activity (transposition frequency) (Tnp D217A plus one D217A): 3.4e-06
- activity (transposition frequency) (Tnp E344K plus one E344K): 6.8e-07
- activity (transposition frequency) (Tnp E58V plus one E58V): 1.4e-06
- activity (transposition frequency) (Tnp L372Q plus one L372Q): 1.1e-05
- activity (transposition frequency) (Tnp R8C plus one R8C): 4e-07
- activity (transposition frequency) (Tnp T171S plus one T171S): 1.8e-06
- activity (transposition frequency) ([2]; dam- strain, 3.3e-6 in dam+ strain): 3.7e-05
- activity (transposition frequency) [3]: 7e-06
- activity (transposition frequency) [4]: 2.25e-05
- activity (transposition frequency) [5]: 1.18e-05
- activity (transposition frequency) [6]: 7.1e-06
- activity (transposition frequency) [7]: 4e-06
- activity (transposition frequency) [8]: 4.5e-06
- activity (transposition frequency) [9]: 1.7e-05
- activity (transposition frequency) [10]: 1.1e-06
- activity (transposition frequency) [11]: 2.8e-07
- activity (transposition frequency) [12]: 6e-06
- activity (transposition frequency) [13]: 2.6e-06
